Experimental data: US20200087363A1 (IMMATICS BIOTECHNOLOGIES, published 2020)

These binders were tested against T1, HLA-B*44:05 (human) (assay: UV peptide exchange, anti-b2m ELISA).
T1 construct: also called peptide-receptive MHC class I molecule
Summary of the method: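 Peptide-receptive HLA-B*44:05 monomers after UV-induced exchange were diluted 100-fold and captured on streptavidin-coated plates for 1 h at 37 °C. Bound complexes were detected with 2 µg/ml HRP-anti-β2m (1 h, 37 °C) and TMB, read at 450 nm. β2m signal reflects peptide-stabilized complex yield.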

**Q.** For EEVLLANALW, which peptide exchange yield is on record?
**A.** Its peptide exchange yield is 50 to 75%.

**Q.** Which peptide exchange yield does the source give for NEIGQELTGQEW here?
**A.** The peptide exchange yield was > 75%.

**Q.** How did the peptide exchange yield turn out when LEHPFLVNLW was run?
**A.** Its peptide exchange yield is > 75%.

**Q.** With SEILRVTLY as the binder, how does the peptide exchange yield read?
**A.** The peptide exchange yield was 50 to 75%.

**Q.** Which peptide exchange yield does the source give for DEMENLLTY here?
**A.** The peptide exchange yield was > 75%.

**Q.** How did the peptide exchange yield turn out when DEQRRQNVAY was run?
**A.** Its peptide exchange yield is 20 to 50%.

**Q.** With REVDPDDSYVF as the binder, how does the peptide exchange yield read?
**A.** The peptide exchange yield was 50 to 75%.

**Q.** Which peptide exchange yield does the source give for TEVSVLLLTF here?
**A.** Its peptide exchange yield is 50 to 75%.

**Q.** Which peptide exchange yield does the source give for IEQGRVVLW here?
**A.** Its peptide exchange yield is > 75%.

**Q.** For AEIIRYIF, which peptide exchange yield is on record?
**A.** Its peptide exchange yield is 10 to 20%.

**Q.** Which peptide exchange yield does the source give for QESVHVASY here?
**A.** The peptide exchange yield was > 75%.

**Q.** How did the peptide exchange yield turn out when TEAVLNRY was run?
**A.** Its peptide exchange yield is 20 to 50%.

**Q.** Which peptide exchange yield does the source give for NEAEWQEIL here?
**A.** The peptide exchange yield was 50 to 75%.

**Q.** With IETSSEYFNF as the binder, how does the peptide exchange yield read?
**A.** The peptide exchange yield was 50 to 75%.

**Q.** Which peptide exchange yield does the source give for AEDFVWAQW here?
**A.** The peptide exchange yield was > 75%.

**Q.** How did the peptide exchange yield turn out when SELNPLALY was run?
**A.** The peptide exchange yield was 50 to 75%.

**Q.** How did the peptide exchange yield turn out when AEDARGWTA was run?
**A.** The peptide exchange yield was 20 to 50%.

**Q.** How did the peptide exchange yield turn out when HEATFGEKRF was run?
**A.** The peptide exchange yield was 50 to 75%.

**Q.** Which peptide exchange yield does the source give for TEFHGGLHY here?
**A.** Its peptide exchange yield is 50 to 75%.

**Q.** For VEIVTIPSL, which peptide exchange yield is on record?
**A.** The peptide exchange yield was 50 to 75%.

**Q.** For EECDKAYSF, which peptide exchange yield is on record?
**A.** The peptide exchange yield was 20 to 50%.

**Q.** How did the peptide exchange yield turn out when GEYNKHAQLW was run?
**A.** The peptide exchange yield was > 75%.

**Q.** With GEVQENYKL as the binder, how does the peptide exchange yield read?
**A.** The peptide exchange yield was 50 to 75%.

**Q.** With KEKVPGITI as the binder, how does the peptide exchange yield read?
**A.** Its peptide exchange yield is 50 to 75%.

**Q.** How did the peptide exchange yield turn out when NEFRRKLTF was run?
**A.** The peptide exchange yield was 50 to 75%.

**Q.** How did the peptide exchange yield turn out when EECGKAFRVF was run?
**A.** The peptide exchange yield was 50 to 75%.

**Q.** Which peptide exchange yield does the source give for EECGKAFSVF here?
**A.** The peptide exchange yield was 50 to 75%.

**Q.** AENRVGKMEA was tested. Which peptide exchange yield did it give?
**A.** Its peptide exchange yield is 20 to 50%.

**Q.** With EEYKFPSLF as the binder, how does the peptide exchange yield read?
**A.** Its peptide exchange yield is 50 to 75%.

**Q.** With LDGIPTAGW as the binder, how does the peptide exchange yield read?
**A.** Its peptide exchange yield is 50 to 75%.

**Q.** Which peptide exchange yield does the source give for AELMDKPLTF here?
**A.** Its peptide exchange yield is 50 to 75%.

**Q.** For QELFLQEVRM, which peptide exchange yield is on record?
**A.** Its peptide exchange yield is 50 to 75%.

**Q.** TEFAVKLKI was tested. Which peptide exchange yield did it give?
**A.** The peptide exchange yield was 50 to 75%.

**Q.** For VENIFHNF, which peptide exchange yield is on record?
**A.** Its peptide exchange yield is 20 to 50%.

**Q.** With QELMAFSFAGL as the binder, how does the peptide exchange yield read?
**A.** The peptide exchange yield was > 75%.

**Q.** With EECDKAFHF as the binder, how does the peptide exchange yield read?
**A.** Its peptide exchange yield is 50 to 75%.

**Q.** For REDPIVYEI, which peptide exchange yield is on record?
**A.** Its peptide exchange yield is 20 to 50%.

**Q.** Which peptide exchange yield does the source give for AEAMGKFKQCF here?
**A.** The peptide exchange yield was 50 to 75%.

**Q.** For TELGLFGVW, which peptide exchange yield is on record?
**A.** The peptide exchange yield was > 75%.

**Q.** Which peptide exchange yield does the source give for SETILAVGL here?
**A.** Its peptide exchange yield is 50 to 75%.

**Q.** With MELLFLDTF as the binder, how does the peptide exchange yield read?
**A.** The peptide exchange yield was 20 to 50%.

**Q.** How did the peptide exchange yield turn out when SEVEYINKY was run?
**A.** The peptide exchange yield was 50 to 75%.

**Q.** Which peptide exchange yield does the source give for DEVRFFKGNKY here?
**A.** The peptide exchange yield was 20 to 50%.

**Q.** Which peptide exchange yield does the source give for EECGKAFKKF here?
**A.** Its peptide exchange yield is 50 to 75%.

**Q.** Which peptide exchange yield does the source give for AEREQVIKL here?
**A.** The peptide exchange yield was > 75%.

**Q.** How did the peptide exchange yield turn out when KELEERMLHW was run?
**A.** The peptide exchange yield was > 75%.

**Q.** How did the peptide exchange yield turn out when SESDGIEQL was run?
**A.** The peptide exchange yield was 50 to 75%.

**Q.** NESGKAFNY was tested. Which peptide exchange yield did it give?
**A.** The peptide exchange yield was > 75%.

**Q.** EESDYITHY was tested. Which peptide exchange yield did it give?
**A.** Its peptide exchange yield is 50 to 75%.

**Q.** For TESIGAQIY, which peptide exchange yield is on record?
**A.** Its peptide exchange yield is 50 to 75%.

**Q.** For IEQADWPEI, which peptide exchange yield is on record?
**A.** Its peptide exchange yield is 20 to 50%.

**Q.** EDASLMGLY was tested. Which peptide exchange yield did it give?
**A.** The peptide exchange yield was 20 to 50%.

**Q.** How did the peptide exchange yield turn out when EENTGKTYF was run?
**A.** Its peptide exchange yield is 50 to 75%.

**Q.** How did the peptide exchange yield turn out when EEMERDLDMY was run?
**A.** The peptide exchange yield was 50 to 75%.
